Test results as given in the supplement of paper PMC11780869.

Test system: Bacillus subtilis
Experiment: cleaved RNA product abundance (RNA/gDNA barcode ratio) relative to median wild-type variant (ratio to wild type); higher = more accumulation of the downstream cleavage product
Conditions: cleavage site: cggR-gapA (positions -7 to +36 mutated)
Summary of the method: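 Sequencing of barcodes from gel-selected, reverse-transcribed cleaved RNA and from genomic DNA, with UMI collapsing, yielded a per-construct RNA:gDNA ratio. Scaled to the median construct with the unmutated site, this ratio is the cleaved product abundance. The barcoded reporters (truncated aprE or tetM mRNAs with mutagenized RNase Y cleavage-site windows) were integrated into the B. subtilis chromosome, and cultures grew in LB at 37°C from OD600 0.0003 to 0.3.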

[1] = experiment (reporter, strain, medium): exp 4a: truncated aprE reporter, strain BJT201 with 2% xylose (RNase J1 expressed)
[2] = experiment (reporter, strain, medium): exp 2b: truncated aprE reporter, strain BJT200
[3] = experiment (reporter, strain, medium): exp 6: tetM reporter, strain 168

Sequence: ACAGACGAAGGAGCCGCAAAGAAGTTATCAAGGGATGAATAATCCCTAAATATAAATATCTCTCACTTATTTAAA
- cleaved RNA product abundance [1]: 0.333

Sequence: ACAGACGAAGGAGCCGCAAAGAAGTTATCAAGGGATGAATAATCCCTCAAAATAAATATCTCTCACTTATTTAAA
- cleaved RNA product abundance [2]: 0.2
- cleaved RNA product abundance [1]: 0.289

Sequence: ACAGACGAAGGAGCCGCAAAGAAGTTATCAAGGGATGAATAATCCCTCAATATAAATATCTCTCACTTATTTAAA
- cleaved RNA product abundance [2]: 0.27
- cleaved RNA product abundance [1]: 0.385
- cleaved RNA product abundance [3]: 0.34

Sequence: ACAGACGAAGGAGCCGCAAAGAAGTTATCAAGGGATGAATAATCCCTCAATATAAATGTCTCTCACTTATTTAAA
- cleaved RNA product abundance [2]: 0.192
- cleaved RNA product abundance [1]: 0.206

Sequence: ACAGACGAAGGAGCCGCAAAGAAGTTATCAAGGGATGAATAATCCCTCAATATAATTATCTCTCACTTATTTAAA
- cleaved RNA product abundance [1]: 0.218

Sequence: ACAGACGAAGGAGCCGCAAAGAAGTTATCAAGGGATGAATAATCCCTCACTATAAATATCTCTCACTTATTTAAA
- cleaved RNA product abundance [1]: 0.306

Sequence: ACAGACGAAGGAGCCGCAAAGAAGTTATCAAGGGATGAATAATCCCTCATTATAAATATCTCTCACTTATTTAAA
- cleaved RNA product abundance [2]: 0.216

Sequence: ACAGACGAAGGAGCCGCAAAGAAGTTATCAAGGGATGAATAATCGCTCAATATAAATATCTCTCACTTATTTAAA
- cleaved RNA product abundance [1]: 0.0908

Sequence: ACAGACGAAGGAGCCGCAAAGAAGTTATCAAGGGATGAATAATGCCTCAATATAAATATCTCTCACTTATTTAAA
- cleaved RNA product abundance [1]: 0.19

Sequence: ACAGACGAAGGAGCCGCAAAGAAGTTATCAAGGGATGAATATTCCCTCAATATAAATATCTCTCACTTATTTAAA
- cleaved RNA product abundance [1]: 0.27

Sequence: ACAGACGAAGGAGCCGCAAAGAAGTTATCAAGGGATGAATTATCCCTCAATATAAATATCTCTCACTTATTTAAA
- cleaved RNA product abundance [1]: 0.25

Sequence: ACAGACGAAGGAGCCGCAAAGAAGTTATCAAGGGATTAATAATCCCTCAATATAAATATCTCTCACTTATTTAAA
- cleaved RNA product abundance [1]: 0.301

Sequence: ACAGACGAAGGAGCCGCAAAGAAGTTATCAAGGGATTAATAATCCCTCATTATAAATATCTCTCACTTATTTAAA
- cleaved RNA product abundance [1]: 0.314

Sequence: ACAGACGAAGGAGCCGCAAAGAAGTTATCAAGGTATGAATAATCCCTCAATATAAATATCTCTCACTTATTTAAA
- cleaved RNA product abundance [1]: 0.169

Sequence: ACAGACGAAGGAGCCGCAAAGAAGTTATCAAGTGATGAATAATCCCTCAATATAAATATCTCTCACTTATTTAAA
- cleaved RNA product abundance [1]: 0.0945

Sequence: ACAGACGAAGGAGCCGCAAAGAAGTTATCAATGGATGAATAATCCCTCAATATAAATATCTCTCACTTATTTAAA
- cleaved RNA product abundance [1]: 0.146

Sequence: ACAGACGAAGGAGCCGCAAAGAAGTTATCAGGGGATGAATAATCCCTCAATATAAATATCTCTCACTTATTTAAA
- cleaved RNA product abundance [2]: 0.323

Sequence: ACAGACGAAGGAGCCGCAAAGAAGTTATCATGGGATGAATAATCCCTCAATATAAATATCTCTCACTTATTTAAA
- cleaved RNA product abundance [1]: 0.262

Sequence: ACAGACGAAGGAGCCGCAAAGAAGTTATCTAGGGATGAATAATCCCTCAATATAAATATCTCTCACTTATTTAAA
- cleaved RNA product abundance [1]: 0.316

Sequence: ACAGACGAAGGAGCCGCAAAGAAGTTATGAAAGGATGAATAATCCCTCAATATAAATATCTCTCACTTATTTAAA
- cleaved RNA product abundance [1]: 0.178

Sequence: ACAGACGAAGGAGCCGCAAAGAAGTTATGAACGGATGAATAATCCCTCAATATAAATATCTCTCACTTATTTAAA
- cleaved RNA product abundance [2]: 0.177
- cleaved RNA product abundance [1]: 0.242

Sequence: ACAGACGAAGGAGCCGCAAAGAAGTTATGAAGAGATGAATAATCCCTCAATATAAATATCTCTCACTTATTTAAA
- cleaved RNA product abundance [1]: 0.0998

Sequence: ACAGACGAAGGAGCCGCAAAGAAGTTATGAAGCGATGAATAATCCCTCAATATAAATATCTCTCACTTATTTAAA
- cleaved RNA product abundance [1]: 0.0897

Sequence: ACAGACGAAGGAGCCGCAAAGAAGTTATGAAGGAATGAATAATCCCTCAATATAAATATCTCTCACTTATTTAAA
- cleaved RNA product abundance [2]: 0.139
- cleaved RNA product abundance [1]: 0.0818

Sequence: ACAGACGAAGGAGCCGCAAAGAAGTTATGAAGGCATGAATAATCCCTCAATATAAATATCTCTCACTTATTTAAA
- cleaved RNA product abundance [2]: 0.108
- cleaved RNA product abundance [1]: 0.116

Sequence: ACAGACGAAGGAGCCGCAAAGAAGTTATGAAGGGACGAATAATCCCTCAATATAAATATCTCTCACTTATTTAAA
- cleaved RNA product abundance [1]: 0.318

Sequence: ACAGACGAAGGAGCCGCAAAGAAGTTATGAAGGGAGGAATAATCCCTCAATATAAATATCTCTCACTTATTTAAA
- cleaved RNA product abundance [2]: 0.22

Sequence: ACAGACGAAGGAGCCGCAAAGAAGTTATGAAGGGATAAATAATCCCTCAATATAAATATCTCTCACTTATTTAAA
- cleaved RNA product abundance [2]: 0.349
- cleaved RNA product abundance [1]: 0.542

Sequence: ACAGACGAAGGAGCCGCAAAGAAGTTATGAAGGGATGAATAACCCCTCAATATAAATATCTCTCACTTATTTAAA
- cleaved RNA product abundance [1]: 0.419

Sequence: ACAGACGAAGGAGCCGCAAAGAAGTTATGAAGGGATGAATAATCCATCAATATAAATATCTCTCACTTATTTAAA
- cleaved RNA product abundance [2]: 0.185

Sequence: ACAGACGAAGGAGCCGCAAAGAAGTTATGAAGGGATGAATAATCCCACAATATAAATATCTCTCACTTATTTAAA
- cleaved RNA product abundance [2]: 0.138

Sequence: ACAGACGAAGGAGCCGCAAAGAAGTTATGAAGGGATGAATAATCCCTAAATATAAATATCTCTCACTTATTTAAA
- cleaved RNA product abundance [2]: 0.38
- cleaved RNA product abundance [1]: 0.711

Sequence: ACAGACGAAGGAGCCGCAAAGAAGTTATGAAGGGATGAATAATCCCTCAATATAAATATCTCTCACTTATTTAAA
- cleaved RNA product abundance [2]: 0.384
- cleaved RNA product abundance [1]: 0.502
- cleaved RNA product abundance [3]: 0.205

Sequence: ACAGACGAAGGAGCCGCAAAGAAGTTATGAAGGGATGAATAATCCCTCAATATACATATCTCTCACTTATTTAAA
- cleaved RNA product abundance [1]: 0.344

Sequence: ACAGACGAAGGAGCCGCAAAGAAGTTATGAAGGGATGAATAATCCCTCAATATAGATATCTCTCACTTATTTAAA
- cleaved RNA product abundance [1]: 0.446

Sequence: ACAGACGAAGGAGCCGCAAAGAAGTTATGAAGGGATGAATAATCCCTCAATATTAATATCTCTCACTTATTTAAA
- cleaved RNA product abundance [1]: 0.125

Sequence: ACAGACGAAGGAGCCGCAAAGAAGTTATGAAGGGATGAATAATCCCTCTATATAAATATCTCTCACTTATTTAAA
- cleaved RNA product abundance [1]: 0.516

Sequence: ACAGACGAAGGAGCCGCAAAGAAGTTATGAAGGGATGAATAATCCCTTAATATAAATATCTCTCACTTATTTAAA
- cleaved RNA product abundance [1]: 0.789

Sequence: ACAGACGAAGGAGCCGCAAAGAAGTTATGAAGGGATGAATAATCCGTCAATATAAATATCTCTCACTTATTTAAA
- cleaved RNA product abundance [1]: 0.222

Sequence: ACAGACGAAGGAGCCGCAAAGAAGTTATGAAGGGATGAATAATCCTTCAATATAAATATCTCTCACTTATTTAAA
- cleaved RNA product abundance [1]: 0.441

Sequence: ACAGACGAAGGAGCCGCAAAGAAGTTATGAAGGGATGAATAATCGCTCAATATAAATATCTCTCACTTATTTAAA
- cleaved RNA product abundance [1]: 0.0808

Sequence: ACAGACGAAGGAGCCGCAAAGAAGTTATGAAGGGATGAATAATTCCTCAATATAAATATCTCTCACTTATTTAAA
- cleaved RNA product abundance [2]: 0.274
- cleaved RNA product abundance [1]: 0.316

Sequence: ACAGACGAAGGAGCCGCAAAGAAGTTATGAAGGGATGAATTATCCCTCAATATAAATATCTCTCACTTATTTAAA
- cleaved RNA product abundance [2]: 0.232
- cleaved RNA product abundance [1]: 0.343

Sequence: ACAGACGAAGGAGCCGCAAAGAAGTTATGAAGGGATGCATAATCCCTCAATATAAATATCTCTCACTTATTTAAA
- cleaved RNA product abundance [1]: 0.542

Sequence: ACAGACGAAGGAGCCGCAAAGAAGTTATGAAGGGATGTATAATCCCTCAATATAAATATCTCTCACTTATTTAAA
- cleaved RNA product abundance [1]: 0.311

Sequence: ACAGACGAAGGAGCCGCAAAGAAGTTATGAAGGGATTAATAATCCCTCAATATAAATATCTCTCACTTATTTAAA
- cleaved RNA product abundance [2]: 0.402
- cleaved RNA product abundance [1]: 0.476

Sequence: ACAGACGAAGGAGCCGCAAAGAAGTTATGAAGGTATGAATAATCCCTCAATATAAATATCTCTCACTTATTTAAA
- cleaved RNA product abundance [2]: 0.113
- cleaved RNA product abundance [1]: 0.0823

Sequence: ACAGACGAAGGAGCCGCAAAGAAGTTATGAAGTGATGAATAATCCCTCAATATAAATATCTCTCACTTATTTAAA
- cleaved RNA product abundance [2]: 0.0796
- cleaved RNA product abundance [1]: 0.0812

Sequence: ACAGACGAAGGAGCCGCAAAGAAGTTATGAATGGATGAATAATCCCTCAATATAAATATCTCTCACTTATTTAAA
- cleaved RNA product abundance [1]: 0.147

Sequence: ACAGACGAAGGAGCCGCAAAGAAGTTATGACGGGATGAATAATCCCTCAATATAAATATCTCTCACTTATTTAAA
- cleaved RNA product abundance [1]: 0.844

Sequence: ACAGACGAAGGAGCCGCAAAGAAGTTATTAAAAGATGAATAATCCCTCAATATAAATATCTCTCACTTATTTAAA
- cleaved RNA product abundance [2]: 0.107
- cleaved RNA product abundance [1]: 0.0921

Sequence: ACAGACGAAGGAGCCGCAAAGAAGTTATTAAAAGATTAATAATCCCTCAATATAAATATCTCTCACTTATTTAAA
- cleaved RNA product abundance [2]: 0.104

Sequence: ACAGACGAAGGAGCCGCAAAGAAGTTATTAAACGATGAATAATCCCTCAATATAAATATCTCTCACTTATTTAAA
- cleaved RNA product abundance [2]: 0.0904
- cleaved RNA product abundance [1]: 0.109

Sequence: ACAGACGAAGGAGCCGCAAAGAAGTTATTAAACGATGAATAATCTCTCAATATAAATATCTCTCACTTATTTAAA
- cleaved RNA product abundance [2]: 0.109
- cleaved RNA product abundance [1]: 0.179
